Experiments:
[1] = target: Taxol-stabilized microtubules of mouse brain tubulin (untreated, wild-type) (mouse) (UniProt P68369); experiment: cell lysate-based TIRF microscopy on immobilised microtubules
[2] = target: Taxol-stabilized microtubules of mouse brain tubulin (untreated, wild-type) (mouse) (UniProt P68369); experiment: FRAP in TIRF microscopy on immobilised microtubules

“YFP-Trim69 wild type (Tripartite motif protein 69) (from UniProt Q86WT6 1-500) (natural protein)” showed a cumulative fluorescent signal on MTs [1] of 395, a density on MTs at 10x lysate dilution [1] of 2980 and a density on MTs at 100x lysate dilution [1] of 731. The fluorescent intensity on microtubules [1] was 194 and the fluorescence recovery at 6.5 min after photobleaching [2] was 20%.
